Four molecules from patent publication US20080038256A1 (SEOUL NATIONAL UNIVERSITY INDUSTRY FOUNDATION, published 2008) can be followed below.

Substitutions are numbered along the chain they refer to.

Test [1] addresses T1, HGF/SF (hepatocyte growth factor/scatter factor) (UniProt P14210 32-728, limits assumed). Nature of the test: SPR (BIAcore), HGF/SF immobilized. On the procedure: (§1) The binding affinity of the anti-HGF/SF Fab humanized antibody to HGF/SF was determined by SPR (Surface plasmon Resonance) on a BIAcore device (BIAcore, Sweden).
(§2) Specifically, HGF/SF was immobilized on a carboxymethyldextran-modified (CM5) sensor chip (Biacore AB) using 10 mM sodium acetate buffer (pH 4.0) at a flow rate of 5 μl/min with an amine coupling kit (Biacore AB) in accordance with the instruction of the kit. Then 4 anti-HGF/SF Fabs and SFN 68 as a control dissolved in phosphate buffered saline (PBS, pH 7.4) containing 0.005% Tween 20 (Sigma) was injected on the chip at 25° C. for 2 min at a flow rate of 30 μl/min, respectively. The anti-HGF/SF Fab humanized antibody was diluted to a varying concentration in the range of 1.25 to 200 nM. The surface was regenerated with 1 M NaCl/50 mM NaOH. The kinetic rate constants (kₒₙ and koff) as well as the equilibrium dissociation constant (KD) were determined by using BIA evaluation software.
(In general: Surface plasmon resonance follows binding to a sensor surface in real time, without labels.)

Test [2] has as its target T1, HGF/SF (hepatocyte growth …). The test is described as follows: SPR (BIAcore), HGF/SF immobilized on CM5 chip, Fab injected. On the procedure:
as §1, §2

For test [3] the target is unchanged. The test is described as follows: affinity examination of the HSFN 68 clones on HGF/SF, reference SFN68; method not named in this paragraph.
Test [4] shares this target. The test is described as follows: competition ELISA: HGF/SF coated on the plate, cMET/Fc chimera as the blocked ligand mixed with the varied Fab, bound cMET/Fc detected with HRP anti-human Fc, Abs. at 450 nm, triplicates. On the procedure:
A 96-well microplate was coated with 1 μg/ml of HGF/SF and blocked by repeating the procedure of (2-2) of Example 2. Then 25 μl of 2 nM cMET/Fc chimera (R&D systems, USA) mixed with 25 μl of 0 to 200 nM HSFN 68-13 or SFN 68 dissolved in TBSB was added to the HGF/SF coated wells. The plate was incubated for at 37° C. 1 hour and washed with TBS-T. The amount of bound cMET/Fc chimera was assessed with HRP-conjugated rabbit anti-human Fc specific IgG (Pierce) using ultra-TMB substrate solution (Pierce) as a substrate. After 30 min incubation, optical density was measured at 450 nm. All experiments were performed in triplicates, and the average and standard deviation of the optical densities are listed in FIG. 5.
Background: An ELISA detects its analyte on a solid surface through an enzyme-linked reagent.

T1 sequence (P14210 32-728 limits assumed): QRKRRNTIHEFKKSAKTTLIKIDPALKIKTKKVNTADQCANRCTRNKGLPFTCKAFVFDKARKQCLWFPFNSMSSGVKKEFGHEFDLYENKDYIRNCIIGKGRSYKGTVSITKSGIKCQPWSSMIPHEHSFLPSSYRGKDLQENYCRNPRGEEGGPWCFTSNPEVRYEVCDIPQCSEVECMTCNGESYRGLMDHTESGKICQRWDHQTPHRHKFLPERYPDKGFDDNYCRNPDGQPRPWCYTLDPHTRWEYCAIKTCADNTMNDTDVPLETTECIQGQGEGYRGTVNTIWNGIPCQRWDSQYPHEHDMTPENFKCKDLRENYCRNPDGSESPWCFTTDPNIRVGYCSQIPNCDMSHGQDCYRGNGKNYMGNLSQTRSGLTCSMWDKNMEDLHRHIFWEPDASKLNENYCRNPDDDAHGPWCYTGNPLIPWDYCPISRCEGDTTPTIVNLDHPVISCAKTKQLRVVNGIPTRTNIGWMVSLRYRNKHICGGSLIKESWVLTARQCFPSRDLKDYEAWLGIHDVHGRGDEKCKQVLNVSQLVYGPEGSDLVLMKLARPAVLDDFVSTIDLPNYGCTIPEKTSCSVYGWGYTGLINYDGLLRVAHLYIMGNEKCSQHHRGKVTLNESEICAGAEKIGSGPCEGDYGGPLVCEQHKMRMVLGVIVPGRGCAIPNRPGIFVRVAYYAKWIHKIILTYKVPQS

B1: HSFN 68-13 Fab (Fab, V domains shown)
VH: QQQLVESGGGVVRPGGSLRLSCAASGFTFSTYYMSWVRQAPGKGLEWIGYIGTSSGTTYYANSVKGRFTISSDNAKNSVYLQMNSLRPEDTAVYYCARGLGRINLWGPGTLVTVSS
VL: ELQMTQSPSSLSASVGDRVTITCRASQSISTWLAWYQQKPGKAPKLLIYKASTLESGVPLRFSGGGSGTDFTLTISSLQSEDFATYFCQQSYSLPPTFGQGTKVEVKR
notes: also called anti-HGF/SF Fab humanized antibody
For B1, the “fold tighter affinity than SFN68 control” value in test [1] was around 6 fold. Further, in test [2], the Kd is 2.09 nM and the on-rate constant (kon) was found to be 647000 M⁻¹ s⁻¹. For the same molecule, in test [3], the “fold higher affinity than SFN68” value was around 6 fold. Moreover, the “IC50 (read off the curve)” value in test [4] was around 2 nM.

B2: HSFN 68-27 Fab (Fab, V domains shown)
VH: B1 VH with Q2V, V11L, R13K, L18R, K76Q, P108Q
VL: ELQMTQSPSTLSASVGDRVTITCRASQSISSRLAWYQQKPGKAPKLLIYRASTLEGGVPSRFSGSGSGTEFTLTISGLQPDDFATYYCQQYSTFSPTFGQGTQVDIKR
notes: Fab with human Ckappa and human CH1, expressed from pComb3X in E. coli HB2151
In test [2], B2 showed an equilibrium dissociation constant (Kd) of 5.27 nM and a kon of 392000 M⁻¹ s⁻¹.

B3: HSFN 68-16 Fab (Fab, V domains shown)
VH: B1 VH with V11L, R13Q, V37I, K76Q, P108Q
VL: ELVMTQSPSTLSASVGDRVTITCRASQSISSWLAWYQQKPGKAPKLLIYKASTLESGVSSRFSGGGSGTEFTLTISSLQPDDFATYYCQQYSRYSGGTFGQGTKVEIRR
notes: as for B2
As for B3, in test [2], the Kd turned out to be 43.1 nM and the kon is 32400 M⁻¹ s⁻¹.

B4: HSFN 68-41 Fab (Fab, V domains shown)
VH: B1 VH with V11L, R13Q, I48V, P108Q
VL: B3 VL with V3Q, T10S, L11V, T22S, S28D, S30R, W32L, S59P, G65S, S77N
notes: as for B2
B4: in test [2], the Kd was determined as 10.6 nM and the association rate constant (kon) was found to be 106000 M⁻¹ s⁻¹.

In general, Kd refers to the equilibrium constant for the complex coming apart. Low values mean a tighter complex, high ones a looser complex. The kon is the rate constant with which the complex forms.
